± gives the uncertainty stated by the source.
B1: POU domain, class 3, transcription factor 2, residues 356 to 411; numbered along this chain, P20265 (parent)
chain: KKRTSIEVSVKGALESHFLKCPKPSAQEITSLADSLQLEKEVVRVWFCNRRQKEKR

Variants of: B1
Test: abundance fitness (aPCA) (normalised: wild type 0, dead -1); higher = more abundant; growth selection in yeast, the domain comes from the species named
Conditions: Homo sapiens

Variant | abundance fitness
KKRTSIEVSVKGALESHFLKCPKPSAQEITSLADSLQLEKEVVRVWFCNNRQKEKR | -0.907 ± 0.39
KKRTSIEVSVKGALESHFLKCPKPSAQEITSLADSLQLEKEVVRVWFCNVRQKEKR | -1 ± 0.13
KKRTSIEVSVKGALESHFLKCPKPSAQEITSLADSLQLEKEVVRVWFCNDRQKEKR | -0.849 ± 0.19
KKRTSIEVSVKGALESHFLKCPKPSAQEITSLADSLQLEKEVVRVWFCNCRQKEKR | -0.868 ± 0.18
KKRTSIEVSVKGALESHFLKCPKPSAQEITSLADSLQLEKEVVRVWFCNMRQKEKR | -0.545 ± 0.16
KKRTSIEVSVKGALESHFLKCPKPSAQEITSLADSLQLEKEVVRVWFCNWRQKEKR | -0.924 ± 0.13
KKRTSIEVSVKGALESHFLKCPKPSAQEITSLADSLQLEKEVVRVWFCNQRQKEKR | -0.161 ± 0.16
KKRTSIEVSVKGALESHFLKCPKPSAQEITSLADSLQLEKEVVRVWFCNGRQKEKR | -0.735 ± 0.086
KKRTSIEVSVKGALESHFLKCPKPSAQEITSLADSLQLEKEVVRVWFCNFRQKEKR | -1.05 ± 0.31
KKRTSIEVSVKGALESHFLKCPKPSAQEITSLADSLQLEKEVVRVWFCNARQKEKR | -0.35 ± 0.086
KKRTSIEVSVKGALESHFLKCPKPSAQEITSLADSLQLEKEVVRVWFCNPRQKEKR | -0.982 ± 0.23
KKRTSIEVSVKGALESHFLKCPKPSAQEITSLADSLQLEKEVVRVWFCNSRQKEKR | -0.659 ± 0.12
KKRTSIEVSVKGALESHFLKCPKPSAQEITSLADSLQLEKEVVRVWFCNHRQKEKR | -0.583 ± 0.2
KKRTSIEVSVKGALESHFLKCPKPSAQEITSLADSLQLEKEVVRVWFCNERQKEKR | -0.398 ± 0.12
KKRTSIEVSVKGALESHFLKCPKPSAQEITSLADSLQLEKEVVRVWFCNRRQKIKR | -0.665 ± 0.15
KKRTSIEVSVKGALESHFLKCPKPSAQEITSLADSLQLEKEVVRVWFCNRRQKYKR | -0.337 ± 0.17
KKRTSIEVSVKGALESHFLKCPKPSAQEITSLADSLQLEKEVVRVWFCNRRQKLKR | -0.313 ± 0.095
KKRTSIEVSVKGALESHFLKCPKPSAQEITSLADSLQLEKEVVRVWFCNRRQKWKR | -0.581 ± 0.12
KKRTSIEVSVKGALESHFLKCPKPSAQEITSLADSLQLEKEVVRVWFCNRRQKSKR | -0.538 ± 0.1
KKRTSIEVSVKGALESHFLKCPKPSAQEITSLADSLQLEKEVVRVWFCNRRQKCKR | -0.284 ± 0.15
KKRTSIEVSVKGALESHFLKCPKPSAQEITSLADSLQLEKEVVRVWFCNRRQKPKR | -0.861 ± 0.19
KKRTSIEVSVKGALESHFLKCPKPSAQEITSLADSLQLEKEVVRVWFCNRRQKAKR | -0.255 ± 0.12
KKRTSIEVSVKGALESHFLKCPKPSAQEITSLADSLQLEKEVVRVWFCNRRQKKKR | -0.495 ± 0.18
KKRTSIEVSVKGALESHFLKCPKPSAQEITSLADSLQLEKEVVRVWFCNRRQKHKR | -0.417 ± 0.28

Variant | abundance fitness
KKRTSIEVSVKGALESHFLKCPKPSAQEITSLADSLQLEKEVVRVWFCNRRQKQKR | -0.177 ± 0.16
KKRTSIEVSVKGALESHFLKCPKPSAQEITSLADSLQLEKEVVRVWFCNRRQKFKR | -0.764 ± 0.22
KKRTSIEVSVKGALESHFLKCPKPSAQEITSLADSLQLEKEVVRVWFCNRRQKMKR | -0.407 ± 0.18
KKRTSIEVSVKGALESHFLKCPKPSAQEITSLADSLQLEKEVVRVWFCNRRQKNKR | -0.407 ± 0.21
KKRTSIEVSVKGALESHFLKCPKPSAQEITSLADSLQLEKEVVRVWFCNRRQKVKR | -0.466 ± 0.096
KKRTSIEVSVKGALESHFLKCPKPSAQEITSLADSLQLEKEVVRVWFCNRRQKRKR | -0.472 ± 0.085
KKRTSIEVSVKGALESHFLKCPKPSAQEITSLADSLQLEKEVVRVWFCNRRQKTKR | -0.518 ± 0.15
KKRTSIEVSVKGALESHFLKCPKPSAQEITSLADSLQLEKEVVRVWFCNRRQKDKR | -0.185 ± 0.15
KKRTSIEVSVKGALESHFLKCPKPSAQEITSLADSLQLEKEVVRVWFCNRRQKGKR | -0.454 ± 0.094
KKRTSIEVSVKGALESHFLKCPKPSAQEITSLADSLQLEKEVVRVWFCNRRQKECR | -0.33 ± 0.16
KKRTSIEVSVKGALESHFLKCPKPSAQEITSLADSLQLEKEVVRVWFCNRRQKEDR | 0.036 ± 0.16
KKRTSIEVSVKGALESHFLKCPKPSAQEITSLADSLQLEKEVVRVWFCNRRQKEAR | 0.139 ± 0.12
KKRTSIEVSVKGALESHFLKCPKPSAQEITSLADSLQLEKEVVRVWFCNRIQKEKR | -0.397 ± 0.14
KKRTSIEVSVKGALESHFLKCPKPSAQEITSLADSLQLEKEVVRVWFCNRTQKEKR | -0.447 ± 0.12
KKRTSIEVSVKGALESHFLKCPKPSAQEITSLADSLQLEKEVVRVWFCNRSQKEKR | -0.323 ± 0.1
KKRTSIEVSVKGALESHFLKCPKPSAQEITSLADSLQLEKEVVRVWFCNRVQKEKR | -0.245 ± 0.073
KKRTSIEVSVKGALESHFLKCPKPSAQEITSLADSLQLEKEVVRVWFCNRAQKEKR | -0.136 ± 0.076
KKRTSIEVSVKGALESHFLKCPKPSAQEITSLADSLQLEKEVVRVWFCNRNQKEKR | -0.402 ± 0.19
KKRTSIEVSVKGALESHFLKCPKPSAQEITSLADSLQLEKEVVRVWFCNRHQKEKR | -0.098 ± 0.17
KKRTSIEVSVKGALESHFLKCPKPSAQEITSLADSLQLEKEVVRVWFCNRGQKEKR | -0.198 ± 0.081
KKRTSIEVSVKGALESHFLKCPKPSAQEITSLADSLQLEKEVVRVWFCNRCQKEKR | -0.442 ± 0.22
KKRTSIEVSVKGALESHFLKCPKPSAQEITSLADSLQLEKEVVRVWFCNREQKEKR | -0.154 ± 0.09
KKRTSIEVSVKGALESHFLKCPKPSAQEITSLADSLQLEKEVVRVWFCNRFQKEKR | -0.354 ± 0.17
KKRTSIEVSVKGALESHFLKCPKPSAQEITSLADSLQLEKEVVRVWFCNRMQKEKR | -0.156 ± 0.1

Variant | abundance fitness
KKRTSIEVSVKGALESHFLKCPKPSAQEITSLADSLQLEKEVVRVWFCNRWQKEKR | -0.1 ± 0.11
KKRTSIEVSVKGALESHFLKCPKPSAQEITSLADSLQLEKEVVRVWFCNRLQKEKR | 0.061 ± 0.077
KKRTSIEVSVKGALESHFLKCPKPSAQEITSLADSLQLEKEVVRVWFCNRDQKEKR | -0.381 ± 0.13
KKRTSIEVSVKGALESHFLKCPKPSAQEITSLADSLQLEKEVVRVWFCNRPQKEKR | -0.831 ± 0.14
KKRTSIEVSVKGALESHFLKCPKPSAQEITSLADSLQLEKEVVRVWFCNRRQHEKR | -0.204 ± 0.49
KKRTSIEVSVKGALESHFLKCPKPSAQEITSLADSLQLEKEVVRVWFCNRRQLEKR | -0.18 ± 0.18
KKRTSIEVSVKGALESHFLKCPKPSAQEITSLADSLQLEKEVVRVWFCNRRQYEKR | -0.545 ± 0.29
KKRTSIEVSVKGALESHFLKCPKPSAQEITSLADSLQLEKEVVRVWFCNRRQCEKR | 0.025 ± 0.47
KKRTSIEVSVKGALESHFLKCPKPSAQEITSLADSLQLEKEVVRVWFCNRRQMEKR | 0.11 ± 0.29
KKRTSIEVSVKGALESHFLKCPKPSAQEITSLADSLQLEKEVVRVWFCNRRQREKR | -0.457 ± 0.31
KKRTSIEVSVKGALESHFLKCPKPSAQEITSLADSLQLEKEVVRVWFCNRRQGEKR | -0.112 ± 0.44
KKRTSIEVSVKGALESHFLKCPKPSAQEITSLADSLQLEKEVVRVWFCNRRQDEKR | -0.234 ± 0.26
KKRTSIEVSVKGALESHFLKCPKPSAQEITSLADSLQLEKEVVRVWFCNRRQAEKR | -0.602 ± 0.34
KKRTSIEVSVKGALESHFLKCPKPSAQEITSLADSLQLEKEVVRVWFCNRRQVEKR | -0.517 ± 0.35
KKRTSIEVSVKGALESHFLKCPKPSAQEITSLADSLQLEKEVVRVWFCNRRQTEKR | 0.024 ± 0.26
KKRTSIEVSVKGALESHFLKCPKPSAQEITSLADSLQLEKEVVRVWFCHRRQKEKR | -0.08 ± 0.19
KKRTSIEVSVKGALESHFLKCPKPSAQEITSLADSLQLEKEVVRVWFCVRRQKEKR | -0.103 ± 0.12
KKRTSIEVSVKGALESHFLKCPKPSAQEITSLADSLQLEKEVVRVWFCMRRQKEKR | -0.197 ± 0.1
KKRTSIEVSVKGALESHFLKCPKPSAQEITSLADSLQLEKEVVRVWFCSRRQKEKR | -0.137 ± 0.072
KKRTSIEVSVKGALESHFLKCPKPSAQEITSLADSLQLEKEVVRVWFCLRRQKEKR | -0.149 ± 0.08
KKRTSIEVSVKGALESHFLKCPKPSAQEITSLADSLQLEKEVVRVWFCWRRQKEKR | -0.18 ± 0.083
KKRTSIEVSVKGALESHFLKCPKPSAQEITSLADSLQLEKEVVRVWFCTRRQKEKR | -0.207 ± 0.097
KKRTSIEVSVKGALESHFLKCPKPSAQEITSLADSLQLEKEVVRVWFCRRRQKEKR | -0.135 ± 0.065
KKRTSIEVSVKGALESHFLKCPKPSAQEITSLADSLQLEKEVVRVWFCIRRQKEKR | -0.249 ± 0.17

Variant | abundance fitness
KKRTSIEVSVKGALESHFLKCPKPSAQEITSLADSLQLEKEVVRVWFCQRRQKEKR | -0.005 ± 0.088
KKRTSIEVSVKGALESHFLKCPKPSAQEITSLADSLQLEKEVVRVWFCFRRQKEKR | -0.515 ± 0.15
KKRTSIEVSVKGALESHFLKCPKPSAQEITSLADSLQLEKEVVRVWFCGRRQKEKR | -0.25 ± 0.09
KKRTSIEVSVKGALESHFLKCPKPSAQEITSLADSLQLEKEVVRVWFCKRRQKEKR | -0.056 ± 0.12
KKRTSIEVSVKGALESHFLKCPKPSAQEITSLADSLQLEKEVVRVWFCYRRQKEKR | -0.396 ± 0.13
KKRTSIEVSVKGALESHFLKCPKPSAQEITSLADSLQLEKEVVRVWFCNRRIKEKR | -0.145 ± 0.15
KKRTSIEVSVKGALESHFLKCPKPSAQEITSLADSLQLEKEVVRVWFCNRRVKEKR | -0.131 ± 0.094
KKRTSIEVSVKGALESHFLKCPKPSAQEITSLADSLQLEKEVVRVWFCNRREKEKR | 0.222 ± 0.15
KKRTSIEVSVKGALESHFLKCPKPSAQEITSLADSLQLEKEVVRVWFCNRRDKEKR | 0.015 ± 0.18
KKRTSIEVSVKGALESHFLKCPKPSAQEITSLADSLQLEKEVVRVWFCNRRNKEKR | -0.007 ± 0.1
KKRTSIEVSVKGALESHFLKCPKPSAQEITSLADSLQLEKEVVRVWFCNRRFKEKR | -0.106 ± 0.11
KKRTSIEVSVKGALESHFLKCPKPSAQEITSLADSLQLEKEVVRVWFCNRRRKEKR | -0.104 ± 0.068
KKRTSIEVSVKGALESHFLKCPKPSAQEITSLADSLQLEKEVVRVWFCNRRGKEKR | -0.076 ± 0.068
KKRTSIEVSVKGALESHFLKCPKPSAQEITSLADSLQLEKEVVRVWFCNRRPKEKR | -0.956 ± 0.17
KKRTSIEVSVKGALESHFLKCPKPSAQEITSLADSLQLEKEVVRVWFCNRRKKEKR | -0.001 ± 0.14
KKRTSIEVSVKGALESHFLKCPKPSAQEITSLADSLQLEKEVVRVWFCNRRHKEKR | -0.002 ± 0.15
KKRTSIEVSVKGALESHFLKCPKPSAQEITSLADSLQLEKEVVRVWFCNRRAKEKR | 0.039 ± 0.1
KKRTSIEVSVKGALESHFLKCPKPSAQEITSLADSLQLEKEVVRVWFCNRRSKEKR | -0.135 ± 0.085
KKRTSIEVSVKGALESHFLKCPKPSAQEITSLADSLQLEKEVVRVWFCNRRWKEKR | -0.241 ± 0.11
KKRTSIEVSVKGALESHFLKCPKPSAQEITSLADSLQLEKEVVRVWFCNRRLKEKR | -0.125 ± 0.075
KKRTSIEVSVKGALESHFLKCPKPSAQEITSLADSLQLEKEVVRVWFCNRRTKEKR | 0.039 ± 0.12
KKRTSIEVSVKGALESHFLKCPKPSAQEITSLADSLQLEKEVVRVWFCNRRMKEKR | -0.053 ± 0.12

— the Human Domainome abundance scans (Beltran et al. 2025)
